Laboratory results taken from patent publication US20140303084.
Changes are numbered by the printed parent chain.

Experiments:
RRAPGKLQCLASYCWLFWTKIA = system: T1, RRAPGKLQCLASYCWLFWTKIA
T1 sequence: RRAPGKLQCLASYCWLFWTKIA

[1] = system: T2, RRAPGKLTCLK(PEG2-Biotin)SYCWLFWTGIA
T2 sequence: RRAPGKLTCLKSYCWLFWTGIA

[2] = system: T3, PRIRTVGPGSRSASGKLTCLASACWLFWTGIA
T3 sequence: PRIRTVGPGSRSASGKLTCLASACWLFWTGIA

[3] = system: T4, VGSGDERALP SRASG KLTCLASYCWLFWTGIA
T4 sequence: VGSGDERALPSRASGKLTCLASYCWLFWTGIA

[4] = system: T5, Glu(Biotinyl-PEG)-RAPGKLTCLASYCWLFWTGIA
T5 sequence: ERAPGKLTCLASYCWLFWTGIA

[5] = system: T6, k-MeLeu-TCLAS-(Y-OMe)-CWLF
T6 sequence: KLTCLASYCWLF

[6] = system: T7, RRAPGKLTCLASYCWLF WTTWT TAPTTPPLTT
T7 sequence: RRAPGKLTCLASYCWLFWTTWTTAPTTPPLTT

compound 22 = system: T8, compound 22
T8 sequence: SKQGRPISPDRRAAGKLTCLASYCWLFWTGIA

WVPQWKVTCLASCSRLFHGFDA = system: T9, WVPQWKVTCLASCSRLFHGFDA
T9 sequence: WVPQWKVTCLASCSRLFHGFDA

[7] = system: T10, rRAPGKLTCLASYCWLFWTGIA-PEG16-Lys(PEG2-Biotin)-PEG16-Lys(palmitoyl)
T10 sequence: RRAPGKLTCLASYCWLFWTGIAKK

RRAPAKLQCLASYCWLFWTGIA = system: T11, RRAPAKLQCLASYCWLFWTGIA
T11 sequence: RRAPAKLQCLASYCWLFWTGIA

[8] = system: T12, RRAPGKLCALASYCWLFWTGIA-CONH2
T12 sequence: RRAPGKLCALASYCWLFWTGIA

(PEG)27-KLTCLASYCWLF = system: T13, (PEG)27-KLTCLASYCWLF
T13 sequence: KLTCLASYCWLF

[9] = system: T14, rRAPGKLTCLASYCWLFWTGIA-PEG16-Lys(PEG2-Biotin)-PEG16
T14 sequence: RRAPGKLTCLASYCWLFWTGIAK

CRRAPGKLQCLASYCWLFWTGIAC = system: T15, CRRAPGKLQCLASYCWLFWTGIAC
T15 sequence: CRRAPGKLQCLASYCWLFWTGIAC

KLTCLASYC-Nal-LF = system: T16, KLTCLASYC-Nal-LF
T16 sequence: KLTCLASYCXLF

[10] = system: T17, Palmitoyl-(PEG)27(PEG)27-KLTCLASYCWLF
T17 sequence: KLTCLASYCWLF

[11] = system: T18, PRIRTVGPGSRSASGKLTCIASYCWLFWTGIA
T18 sequence: T3 sequence with L20I, A23Y

KLTCLASYCWAF = system: T19, KLTCLASYCWAF
T19 sequence: KLTCLASYCWAF

RRCPGKLQALASYCWLFWTGIA = system: T20, RRCPGKLQALASYCWLFWTGIA
T20 sequence: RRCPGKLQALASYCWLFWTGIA

compound 21 = system: T21, compound 21
T21 sequence: T3 sequence with A23Y

RRAPGKLTCLASYCWLFWTGIa = system: T22, RRAPGKLTCLASYCWLFWTGIa
T22 sequence: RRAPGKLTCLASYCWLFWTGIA

KGAYQKLTCLASYCLLFLLTAQ = system: T23, KGAYQKLTCLASYCLLFLLTAQ
T23 sequence: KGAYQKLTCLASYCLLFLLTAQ

[12] = system: T24, RPRSSAHDRP RRAAG KLTCLASYCWLFWTGIA
T24 sequence: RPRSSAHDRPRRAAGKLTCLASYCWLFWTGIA

compound B = system: T25, compound B
T25 sequence: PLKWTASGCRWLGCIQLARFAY

[13] = system: T26, RRAPGKLT-Asp-LASY-Lys-WLFWTGIA-COOH
T26 sequence: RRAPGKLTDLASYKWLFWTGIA

[14] = system: T27, RRAPGKLTCLASYCWLF WAGIA PHRPLKERVR
T27 sequence: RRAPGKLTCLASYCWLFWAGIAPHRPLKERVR

KLTCLASY-HCy-WLF = system: T28, KLTCLASY-HCy-WLF
T28 sequence: KLTCLASYXWLF

[15] = system: T29, PEG4-RRAPGKLTCLASYCWLFWTGIA
T29 sequence: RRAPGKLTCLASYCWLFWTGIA

[16] = system: T30, RK(PEG2-Biotin)APGKLTCLASYCWLFWTGIA
T30 sequence: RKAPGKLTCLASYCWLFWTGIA

[17] = system: T31, RRAPGKLTCLASYCWLF WAVIA PPKVKGTRQS
T31 sequence: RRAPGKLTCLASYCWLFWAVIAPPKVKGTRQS

KLTCLASYCWLA = system: T32, KLTCLASYCWLA
T32 sequence: KLTCLASYCWLA

compound 24 = system: T33, compound 24
T33 sequence: T8 sequence

[18] = system: T34, RRAPGKCTALASYCWLFWTGIA-COOH
T34 sequence: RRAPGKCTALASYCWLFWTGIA

[19] = system: T35, SKQGRPISPDrRAAGKLTCLASYCWLFW
T35 sequence: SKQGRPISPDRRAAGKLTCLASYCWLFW

[20] = system: T36, C(N-PEG5kmaleimide)-PEG4-LVPR-PEG4-rRAPGKLTCLASYCWLFWTGIA
T36 sequence: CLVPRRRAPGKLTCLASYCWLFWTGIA

[21] = system: T37, RR-MeAla-PGKLTCLASYCWLFWTGIA
T37 sequence: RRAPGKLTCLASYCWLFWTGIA

[22] = system: T38, SKQGRPISSDrRASGKLTCLASYCWLFWTGIA
T38 sequence: T8 sequence with P9S, A14S

[23] = system: T39, TGLLQGRRDE RARPP KLTCLASYCWLFWTGIA
T39 sequence: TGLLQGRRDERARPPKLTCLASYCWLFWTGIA

RRAPGKLQCLASYCWLFWAGIA = system: T40, RRAPGKLQCLASYCWLFWAGIA
T40 sequence: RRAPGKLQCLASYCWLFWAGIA

[24] = system: T41, CGGSGGRRAPGKLQCLASYCWLFWTGIAC
T41 sequence: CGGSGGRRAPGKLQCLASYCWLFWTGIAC

[25] = system: T42, RRAPGKLTCLASYCWLFWTG-MeIle-A
T42 sequence: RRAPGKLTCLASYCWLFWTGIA

Dab-LTCLASYCWLF = system: T43, Dab-LTCLASYCWLF
T43 sequence: XLTCLASYCWLF

KLTCLASQCWLF = system: T44, KLTCLASQCWLF
T44 sequence: KLTCLASQCWLF

[26] = system: T45, RRAPGKLTCLASYCWLFWTGI-MeAla
T45 sequence: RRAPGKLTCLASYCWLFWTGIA

APGKLQCLASYCWLFWTGIA = system: T46, APGKLQCLASYCWLFWTGIA
T46 sequence: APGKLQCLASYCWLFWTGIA

Ac-K-k-MeLeu-TCLASYCWLF = system: T47, Ac-K-k-MeLeu-TCLASYCWLF
T47 sequence: KKLTCLASYCWLF

KLTCLKSYCWLF = system: T48, KLTCLKSYCWLF
T48 sequence: KLTCLKSYCWLF

KLTCLVSYCWLF = system: T49, KLTCLVSYCWLF
T49 sequence: KLTCLVSYCWLF

[27] = system: T50, HLFGADWLGA RTAPG KLTCLASYCWLFWTGIA
T50 sequence: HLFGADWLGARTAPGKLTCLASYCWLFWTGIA

For human Factor IXa, the “Vmax, FXa generation assay; (++) means 1-2” value (RRAPGKLQCLASYCWLFWTKIA) was “(++)”, the “Vmax, FXa generation assay; (++) means 1-2” value [1] was “(++)” and the “Vmax, FXa generation assay; (++) means 1-2” value [2] was “(++)”. The Vmax, FXa generation assay [3] was greater than 2, the Vmax, FXa generation assay [4] was greater than 0.8 and the Vmax, FXa generation assay [5] was greater than 3. For the same substance, the Vmax, FXa generation assay [6] was greater than 2, the Vmax, FXa generation assay with hFIXa (compound 22) was greater than 3 and the Vmax, FXa generation assay (WVPQWKVTCLASCSRLFHGFDA) was greater than 1.5. The Vmax, FXa generation assay [7] was greater than 3, the Vmax, FXa generation assay (RRAPAKLQCLASYCWLFWTGIA) was greater than 2 and the Vmax, FXa generation assay [8] was greater than 2. For the same substance, the Vmax, FXa generation assay ((PEG)27-KLTCLASYCWLF) was greater than 2, the Vmax, FXa generation assay [9] was greater than 3 and the Vmax, FXa generation assay (CRRAPGKLQCLASYCWLFWTGIAC) was greater than 2. For the same substance, the Vmax, FXa generation assay (KLTCLASYC-Nal-LF) was greater than 3, the Vmax, FXa generation assay [10] was greater than 0.3 and the Vmax, FXa generation assay [11] was greater than 2. It also gave a Vmax, FXa generation assay (KLTCLASYCWAF) greater than 2, a Vmax, FXa generation assay (RRCPGKLQALASYCWLFWTGIA) greater than 2 and a Vmax, FXa generation assay with hFIXa (compound 21) greater than 3. For the same substance, the “Vmax, FXa generation assay; (++) means 1-2” value (RRAPGKLTCLASYCWLFWTGIa) was “(++)”, the “Vmax, FXa generation assay; (++) means 1-2” value (KGAYQKLTCLASYCLLFLLTAQ) was “(++)” and the Vmax, FXa generation assay [12] was greater than 3. The “Vmax, FXa generation assay with hFIXa; (++) means 1-2” value (compound B) was “(++)”, the “Vmax, FXa generation assay; (++) means 1-2” value [13] was “(++)” and the Vmax, FXa generation assay [14] was greater than 2. For the same substance, the Vmax, FXa generation assay (KLTCLASY-HCy-WLF) was greater than 3, the Vmax, FXa generation assay [15] was greater than 3 and the “Vmax, FXa generation assay; (++) means 1-2” value [16] was “(++)”. For the same substance, the Vmax, FXa generation assay [17] was greater than 2, the Vmax, FXa generation assay (KLTCLASYCWLA) was greater than 3 and the Vmax, FXa generation assay with hFIXa (compound 24) was greater than 3. For the same substance, the “Vmax, FXa generation assay; (++) means 1-2” value [18] was “(++)”, the Vmax, FXa generation assay [19] was greater than 3 and the “Vmax, FXa generation assay; (++) means 1-2” value [20] was “(++)”. For the same substance, the Vmax, FXa generation assay [21] was greater than 3, the Vmax, FXa generation assay [22] was greater than 3 and the Vmax, FXa generation assay [23] was greater than 3. The Vmax, FXa generation assay (RRAPGKLQCLASYCWLFWAGIA) was greater than 3, the “Vmax, FXa generation assay; (++) means 1-2” value [24] was “(++)” and the Vmax, FXa generation assay [25] was greater than 2.3. The “Vmax, FXa generation assay; (++) means 1-2” value (Dab-LTCLASYCWLF) was “(++)”, the Vmax, FXa generation assay (KLTCLASQCWLF) was greater than 2 and the “Vmax, FXa generation assay; (++) means 1-2” value [26] was “(++)”. The “Vmax, FXa generation assay; (++) means 1-2” value (APGKLQCLASYCWLFWTGIA) was “(++)”, the Vmax, FXa generation assay (Ac-K-k-MeLeu-TCLASYCWLF) was greater than 2 and the “Vmax, FXa generation assay; (++) means 1-2” value (KLTCLKSYCWLF) was “(++)”. The Vmax, FXa generation assay (KLTCLVSYCWLF) was greater than 2 and the “Vmax, FXa generation assay; (++) means 1-2” value [27] was “(++)”.
